US20230227537A1 (VIB VZW, published 2023)
Where a chain is given by its changes, count along the chain named. Numbers in names are those of the source. Like-named read-outs stand apart in the source and are kept apart here.

Legend:
[1] = biological target: T1, SARS-CoV-2 RBD protein Avi-tag biotinylated (AcroBiosystems SPD-C82E9) (SARS-CoV-2, UniProt P0DTC2 330-518)
[2] = biological target: T2, monomeric human Fc-fused SARS-CoV-2_RBD-SD1 (SARS-CoV-2, UniProt P0DTC2 319-591); assay: BLI kinetics on RBD-mono-hFc, 1:1 fit, mean ± SD, n = 2 [upper graph]
[3] = biological target: T2, monomeric human Fc-fused …; assay: BLI, RBD-SD1-mono-hFc on AHC tips
[4] = biological target: T2, monomeric human Fc-fused …; assay: BLI kinetics on RBD-mono-hFc, 1:1 fit, mean ± SD, n = 2
[5] = biological target: T3, Mouse IgG1 Fc fused SARS-CoV-2 RBD (Sino Biological) (SARS-CoV-2; mouse, UniProt P0DTC2 330-518)
[6] = biological target: SARS-CoV-2 spike, full length, on cells or on pseudotyped/authentic virus (SARS-CoV-2, UniProt P0DTC2 14-1273); assay: cell-based or functional assay
[7] = biological target: T3, Mouse IgG1 Fc fused SARS-CoV-2 RBD …; remark: listed apart in the source
[8] = biological target: T3, Mouse IgG1 Fc fused SARS-CoV-2 RBD …; assay: BLI, RBD-mFc on AMC tips, global 1:1 fit
[9] = biological target: T2, monomeric human Fc-fused …; assay: BLI kinetics on RBD-mono-hFc, 1:1 fit, mean ± SD, n = 2 [lower graph]
[10] = biological target: T3, Mouse IgG1 Fc fused SARS-CoV-2 RBD …; remark: listed apart in the source
[11] = biological target: T3, Mouse IgG1 Fc fused SARS-CoV-2 RBD …; remark: listed apart in the source
[12] = biological target: T1, SARS-CoV-2 RBD protein Avi-tag …; remark: listed apart in the source
[13] = biological target: WT SARS-CoV-2 RBD displayed on Saccharomyces cerevisiae (SARS-CoV-2, UniProt P0DTC2 331-518)
[14] = biological target: T1, SARS-CoV-2 RBD protein Avi-tag …; remark: listed apart in the source
[15] = biological target: T1, SARS-CoV-2 RBD protein Avi-tag …; remark: listed apart in the source
[16] = biological target: T1, SARS-CoV-2 RBD protein Avi-tag …; remark: listed apart in the source

B1: VHH3.29 (VHH)
VHH: QVQLQESGGGLVQAGGSLRLSCVASGRTFSSGGMGWFRQAPGQEREFVAGIGWAGLSSYYLDSVKGRFTISLDNAKNTVYLQMNMLKPEDTGVYYCAADDHGWSAAGMDYLGQGTQVTVSS
With B1 the IC50 [1] was 389 pM.

B2: VHH3.77 (VHH)
VHH: QVQLQESGGGLVQAGGSLRLSCVSSGRAFGNGAVGWFRQGPGRPREFVATVSWNGGGTYFAESVRGRFTISRDNAKNTVYLQMNNLKPEDTAVYYCALAGEGTVVSEWDYDYEYWGQGTQVTVSS
B2 showed a Kd [2] of 153 pM, a koff [2] of 0.000297 s⁻¹ and a kon [2] of 1.96e+06 M⁻¹ s⁻¹. It also gave a Kd [3] of 150 pM and an IC50 [1] of 237 pM.

B3: VHH3BE4 (VHH)
VHH: B2 VHH with S24A, G40A, P44E, F60Y, N77S, N85S, L98S, E113D
B3 showed an IC50 [1] of 212 pM.

B4: VHH3.144 (VHH)
VHH: B2 VHH with S24A, G40A, P44E, F60Y, N77S, N85S, L98S, E113D
B4 showed an IC50 [1] of 397 pM.

B5: VHH3.17 (VHH)
VHH: B2 VHH with Q13E, R19T, V23A, S24A, N31D
In the case of B5, the koff [4] is reported as 0.000358 s⁻¹, the kon [4] is reported as 1.54e+06 M⁻¹ s⁻¹ and the Kd [3] is reported as 234 pM. For the same binder, the IC50 [1] was 316 pM.

B6: VHH3.47 (VHH)
VHH: QVQLQESGGGLVQAGDSLRLSCAASGHNFSTYAMAWFRQAPGTERELVAAISENDVMRYYADSVKGRFTISRDNAKNMAYLQMNSLKVEDTAVYLCAADPKGWSEWDMDYWGKGTQVTVSS
For B6, the IC50 [1] was 297 pM.

B7: VHH3.149 (VHH)
VHH: QVQLQESGGGLVQAGGSLKLSCAASGRTFSSYALGWFRQAPGTEREFVSAINWFGAPTYYADSVKGRFTISRDNAKNTVYLQMDNLKPEDTAVYYCAADSKGWDPQDMDYWGKGTQVTVSS
Work on B7 yielded an IC50 [1] of 334 pM.

B8: D72-22: h1-VHH72-[change]-GS-hIgG1hinge-hIgG1Fc (Fc fusion)
chain: EVQLVESGGGLVQPGGSLRLSCAASGRTFSEYAMGWFRQAPGKEREFVATISWSGGATYYTDSVKGRFTISRDNAKNTVYLQMNSLRPEDTAVYYCAAAGLGTVVSEWDYDYDYWGQGTLVTVSSGS
In the case of B8, the EC50 [5] is reported as 0.00439 µg/mL, the “IC50, plaque reduction neutralization, authentic SARS-CoV-2” value [6] is reported as 0.12 µg/mL and the Kd [7] is reported as 47.1 pM. For the same binder, the koff [7] was 4.87e-05 s⁻¹ and the kon [7] was 1.07e+06 M⁻¹ s⁻¹.

B9: D72-17: h1-VHH72-GS-hIgG1hinge-hIgG1Fc-L234A-L235A-P329G (Fc fusion)
chain: B8 chain with A57S
notes: ExpiCHO
B9 showed an EC50 [5] of 0.00836 µg/mL, a Kd [8] of 100 pM and a koff [8] of 0.000178 s⁻¹. For the same binder, the kon [8] was 1.77e+06 M⁻¹ s⁻¹.

B10: D72-15: VHH72-GS-hIgG1hinge-hIgG1Fc-L234A-L235A-P329G (Fc fusion)
chain: B8 chain with E1Q, V5Q, P14A, A57S, R87K, E89D, L120Q
notes: ExpiCHO
B10 showed an EC50 [5] of 0.0108 µg/mL, a Kd [8] of 130 pM and a koff [8] of 0.000297 s⁻¹. It also gave a kon [8] of 2.29e+06 M⁻¹ s⁻¹.

B11: VHH3.115 (VHH)
VHH: QVQLQESGGGLVQTGGSLRLSCAASGLTFSDIAMGWFRQAPGREREFVATISWSGGGTYYAEPVRGRFAISRDNAKNTVYLQMNSLKPEDTAVYYCAAAGAGTVVSEWDYDYDYWGQGTQVTVSS
Binder B11 has a Kd [3] of 734 pM, an IC50 [1] of 409 pM and a koff [9] of 0.00157 s⁻¹. The kon [9] was 2.14e+06 M⁻¹ s⁻¹.

B12: VHH3.35 (VHH)
VHH: QVQLQESGGGLVQAGGSLTLSCEVSGRTNDNYGVGWFRQVPGAERELVAAIRWSSISRYYKDSVKGRFTISRDNAKNTVYLQMDMLKAEDTAVYYCAADPAGWSEFGMEYWGKGTQVTVSS
With B12 the IC50 [1] was 406 pM.

B13: VHH3.55 (VHH)
VHH: B12 VHH with T19R, A88P, V93A
B13 was tested, and the IC50 [1] was 322 pM.

B14: VHH3.38 (VHH)
VHH: QVQLQESGGGLVQAGGSLRLSCAASGGTFNNYAMAWFRQAPGQERELVAAMFWSGLPKYYADSVKGRFTISTDDAKNTVYLQMNGLKPEDTAVYYCAADSRGWSDVGGMDYWGKGTQVTVSS
Work on B14 yielded an IC50 [1] of 769 pM.

B15: VHH3.36 (VHH)
VHH: QVQLQESGGGLVQAGDSLRLSCVVSGGTFSSYAMGWFRQAPGKERELVAAINWGGISVYYADSVKGRFTISRDNAENTVYLQMNSLKPEDTAVYYCAADPKGWSEWDMEYWGKGTQVTVSS
B15 was tested, and the IC50 [1] was 156 pM.

B16: D72-52: VHH72_h1_E1D_S56A-([change])2-hIgG1hinge_EPKSCdel-hIgG1Fc_LALAPG_Kdel (Fc fusion)
chain: DVQLVESGGGLVQPGGSLRLSCAASGRTFSEYAMGWFRQAPGKEREFVATISWSGGATYYTDSVKGRFTISRDNAKNTVYLQMNSLRPEDTAVYYCAAAGLGTVVSEWDYDYDYWGQGTLVTVSSGGGGSGGGGSDKTHTCPPCPAPEAAGGPSVFLFPPKPKDTLMISRTPEVTCVVVDVSHEDPEVKFNWYVDGVEVHNAKTKPREEQYNSTYRVVSVLTVLHQDWLNGKEYKCKVSNKALGAPIEKTISKAKGQPREPQVYTLPPSRDELTKNQVSLTCLVKGFYPSDIAVEWESNGQPENNYKTTPPVLDSDGSFFLYSKLTVDKSRWQQGNVFSCSVMHEALHNHYTQKSLSLSPG
In the case of B16, the IC50 [10] is reported as 0.199 µg/mL.

B17: VHH3.83 (VHH)
VHH: QVQLQESGGGLVQPGDSLRLSCVLSGGVFTSYAMGWFRQAPGKEREFLAAITFNSDATYYADSVKGRFTISRDNAKNTAYLQMNSLKPNDTAVYSCAAGGNHYNPQYYHDYDKYDHWGQGTQVTVSS
B17 was tested, and the IC50 [1] was 162 pM.

B18: VHH72_h1(E1D,S56A) sequence optimized (SO), monovalent (VHH)
VHH: DVQLVESGGGLVQPGGSLRLSCAASGRTFSEYAMGWFRQAPGKEREFVATISWSGGATYYTDSVKGRFTISRDNAKNTVYLQMNSLRPEDTAVYYCAAAGLGTVVSEWDYDYDYWGQGTLVTVSS
Binder B18 has a koff [11] of 0.00568 s⁻¹ and a koff [12] of 0.0024 s⁻¹.

B19: VHH72_h1(S56A) (VHH)
VHH: B18 VHH with D1E
With B19 the “EC50 (read off the curve)” value [13] was ~0.3 µg/mL, the Kd [14] was 3090 pM and the “fold improvement of KD against VHH72 h1” value [14] was 3 fold. The koff [14] was 0.00069 s⁻¹, the Kd [10] was 5260 pM and the “fold better competition than VHH72-wt and VHH72_h1” value [10] was 7 fold. For the same binder, the “fold improvement of KD against VHH72 h1” value [10] was > 6 fold.

B20: PB9677 hIgG4 FALA (Fc fusion)
VHH: B18 VHH
With B20 the “IC50 (read off the curve)” value [15] was ~0.02 µg/mL.

B21: VHH72_h1 (E1D) (VHH)
VHH: B18 VHH with A57S
In the case of B21, the Kd [16] is reported as 10400 pM, the koff [16] is reported as 0.00204 s⁻¹ and the Kd [11] is reported as 31100 pM. It also gave a koff [11] of 0.0313 s⁻¹ and a koff [12] of 0.00354 s⁻¹.

B22: VHH2.50 (VHH)
VHH: B18 VHH with D1Q, V5Q, P14A, E31S, Y32I, A57S, T61A, R87K, L120Q
With B22 the IC50 [1] was 27700 pM.
